{
  "source": "patent US10532083B2",
  "about": "“Methods for inducing differentiation or conversion of white adipocytes and/or preadipocytes to brown adipocites using FGF8” (Technische Universität München, priority 2014, dated 2020)",
  "molecules": {"B1": {"name": "FGF8b: murine recombinant paracrine fibroblast growth factor 8, major spliceform b (R&D Systems); amino acid sequence identical to human, SEQ ID NO:16/20 (protein)", "chain": "MGSPRSALSCLLLHLLVLCLQAQVTVQSSPNFTQHVREQSLVTDQLSRRLIRTYQLYSRTSGKHVQVLANKRINAMAEDGDPFAKLIVETDTFGSRVRVRGAETGLYICMNKKGKLIAKSNGKGKDCVFTEIVLENNYTALQNAKYEGWYMAFTRKGRPRKGSKTRQHQREVHFMKRLPRGHHTTEQSLRFEFLNYPPFTRSLRGSQRTWAPEPR", "modifications": "human FGF8b"}},
  "key": {"[1]": {"tested_on": "visceral, epididymal white adipocytes", "assay": "Ucp1 / brown adipocyte marker mRNA (qPCR) in immortalized epididymal white adipocytes treated with FGFs", "type": "cell-based, murine", "conditions": "for Induction of Ucp1 mRNA expression (browning potential), screening of paracrine FGFs and FGF8 spliceforms: epididymal adipocytes, six days of differentiation, FGF8a, b, e, f 25.0 ng/ml, FGF17 10.0 ng/ml", "protocol": "(§1) Screening paracrine FGFs for a browning potential. A, B—Screening of all paracrine FGFs in immortalized white adipocytes. Subcutaneous, inguinal and visceral, epididymal white adipocytes were grown to confluence in Dulbecco's modified Eagle's medium with 4.5 g/l glucose, supplemented with 20 nmol/l insulin, 1 nmol/l triiodothyronine, 20% fetal bovine serum, and penicillin/streptomycin. Upon reaching confluence, differentiation was induced with 500 mmol/l isobutylmethylxanthine, 250 mmol/l indomethacine, and 2 mg/ml dexamethasone for 24 hours. Subsequently, members of the paracrine FGF protein family were added to the medium for the following six days. The medium and the FGF indicated were changed every 48 hours. Untreated cells served as a negative control. At the end of the differentiation process total RNA was isolated using TRIzol reagents, RNA quality and concentration was measured by photometric analysis, and 5 μg of total RNA was reverse-transcribed to cDNA. Finally, quantitative analysis of UCP-1 mRNA expression was performed. A bar graph analysis including the SEM of 3 to 6 independent experiments is shown. […] B—Four different splicing forms of the Fgf8 gene were compared by quantifying Ucp1 mRNA expression in fully differentiated white adipocytes. UCP-1 mRNA abundance is shown in percent of the FGF8b value. Fgf8b and Fgf8f were able to increase expression in epididymal adipocytes. C—Illustration depicting the different exon usage that characterizes the FGF8 spliceforms a, b, e, and f.\n(§2) Dose dependency of Ffg8b action. A, B—Subcutaneous, inguinal and visceral, epididymal white adipocytes were grown to confluence in Dulbecco's modified Eagle's medium with 4.5 g/l glucose, supplemented with 20 nmol/l insulin, 1 nmol/l triiodothyronine, 20% fetal bovine serum, and penicillin/streptomycin. Upon reaching confluence, differentiation was induced with 500 mmol/l isobutylmethylxanthine, 250 mmol/l indomethacine, and 2 mg/ml dexamethasone for 24 hours. Subsequently, FGF8b in five indicated concentrations were added to the medium for the following six days. The medium and the FGF8b were changed every 48 hours. Untreated cells served as a negative control. At the end of the differentiation process total RNA was isolated using TRIzol reagents, RNA quality and concentration was measured by photometric analysis, and 5 μg of total RNA was reverse-transcribed to cDNA. Finally, quantitative analysis of UCP-1 mRNA expression was performed. FGF8b induces Ucp1 mRNA abundance in inguinal and epididymal adipocytes. Epididymal fat cells were more dose dependently responsive to Fgf8b treatment as compared to inguinal cells. The latter were responsive to FGF8b treatment above the threshold indicated. B—The absolute increase of several genes typical for brown fat cells.\n(§3) Treatment timecourse experiment. A, B—Subcutaneous, inguinal and visceral, epididymal white adipocytes were grown to confluence (prolif. denotes proliferation period) in Dulbecco's modified Eagle's medium with 4.5 g/l glucose, supplemented with 20 nmol/l insulin, 1 nmol/l triiodothyronine, 20% fetal bovine serum, and penicillin/streptomycin. Upon reaching confluence, differentiation was induced with 500 mmol/l isobutylmethylxanthine, 250 mmol/l indomethacine, and 2 mg/ml dexamethasone for 24 hours (induction). Subsequently, the cells were cultured for another six days (differentiation). At the end of the differentiation process total RNA was isolated using TRIzol reagents, RNA quality and concentration was measured by photometric analysis, and 5 μg of total RNA was reverse-transcribed to cDNA. Finally, quantitative analysis of UCP-1 mRNA expression was performed. Untreated cells served as a negative control. A bar graph analysis including the SEM of 5 independent experiments is shown. A—Epididymal fat cells were treated with FGF8b during different time windows as given by black squares indicating one day of treatment each. […]"}, "[2]": {"tested_on": "subcutaneous, inguinal white adipocytes", "assay": "Ucp1 / brown adipocyte marker mRNA (qPCR) in immortalized inguinal white adipocytes treated with FGFs", "type": "cell-based, murine", "protocol": "as §1, §2, §3"}, "inguinal adipose tissue": {"tested_on": "inguinal adipose tissue", "assay": "FGF8b releasing pellet implanted into inguinal (subcutaneous) adipose tissue in vivo", "set-up": "species or system 129Sv/ev mice", "conditions": "FGF8b pellets implanted into inguinal adipose tissue", "protocol": "Pellets 1.5 mm in diameter were fabricated from a biodegradable matrix to locally release 100 ng FGF8b per day for 21 days (Innovative Research of America, Sarasota, Fla., USA). […] To implant a pellet into the subcutaneous adipose tissue, a mouse of the 129Sv/ev strain was anesthetized, abdominal fur removed and the pellet pushed into the depot through a short cut in the skin. To target the visceral adipose tissue, the pellet was introduced through a small cut each into skin and abdominal wall and placed between lobes of epididymal adipose tissue. Mice were kept in a specific pathogen free barrier facility at room temperature in a 12:12 hour light:dark cycle with free access to food and water. Three weeks after implantation mice were killed by carbon dioxide exposure and dissected. Blood parameters were analyzed with an automated clinical chemistry analyzer (Piccolo xpress system, Abaxis, Darmstadt, Germany). All animal experiments were performed according to the German animal welfare law (permission no. 55.2-1-54-2532-174-11). By visual inspection, the implantation site of FGF8b pellets and the surrounding adipose tissue was of a brown colour, while both the non-implanted contralateral depot and the implantation site of placebo pellets remained characteristically white (FIG. 6A). […]"}},
  "data": [
    {"molecule": "B1", "values": [
      {"measurement": "Pgc1a mRNA", "setting": "[1]; continuous treatment during differentiation, fully differentiated adipocytes (FIG. 2B)", "value": "strongly downregulated"},
      {"measurement": "Induction of Ucp1 mRNA expression (browning potential), screening of paracrine FGFs and FGF8 spliceforms", "setting": "[1]", "value": "increased expression of Ucp1 mRNA expression"},
      {"measurement": "Induction of Ucp1 mRNA expression (browning potential), screening of paracrine FGFs and FGF8 spliceforms", "setting": "[1]; listed as Fgf8b", "value": "effective"},
      {"measurement": "Ucp1 mRNA abundance, dose dependency", "setting": "[1]; epididymal cells, different concentrations during entire differentiation phase of 6 days", "value": "dose dependent manner"},
      {"measurement": "Most effective concentration for Ucp1 induction", "setting": "[1]; epididymal cells, highest concentration tested, 6 days of differentiation", "value": 125, "unit": "ng/mL"},
      {"measurement": "Final Ucp1 mRNA abundance after full differentiation", "setting": "[1]; epididymal cells, treatment during the induction period", "value": "inhibited Ucp1 induction"},
      {"measurement": "Ucp1 mRNA abundance, induction", "setting": "[1]; fully differentiated epididymal cell line, treatment after induction for entire differentiation period of 6 days, screening concentration 25.0 ng/ml, untreated cells as control", "value": 27.4, "unit": "fold"},
      {"measurement": "Ucp1 mRNA abundance, induction", "setting": "[2]; fully differentiated inguinal cell line, treatment after induction for entire differentiation period of 6 days, screening concentration 25.0 ng/ml, untreated cells as control", "value": 2.1, "unit": "fold"},
      {"measurement": "Induction of Ucp1 mRNA expression (browning potential), screening of paracrine FGFs and FGF8 spliceforms", "setting": "[2]; inguinal adipocytes, six days of differentiation, FGF8a, b, e, f 25.0 ng/ml, FGF17 10.0 ng/ml", "value": "only isoform with browning potential"},
      {"measurement": "Cidea mRNA abundance", "setting": "[2]; inguinal adipocytes, treatment during differentiation, smaller effect size than in epididymal", "value": "increased"},
      {"measurement": "Ucp1 mRNA abundance, dose dependency", "setting": "[2]; inguinal cells, different concentrations during entire differentiation phase of 6 days", "value": "only the highest dose increased Ucp1 expression"},
      {"measurement": "Most effective concentration for Ucp1 induction", "setting": "[2]; inguinal cells, highest concentration tested, 6 days of differentiation", "value": 125, "unit": "ng/mL"},
      {"measurement": "Final Ucp1 mRNA abundance after full differentiation (responsiveness)", "setting": "[2]; inguinal cells, treatment during different days of proliferation, induction and/or differentiation", "value": "only responsive to FGF8b treatment in their fully differentiated state"},
      {"measurement": "Visual browning and expression of brown adipocyte marker genes", "setting": "inguinal adipose tissue", "value": "did not lead to visual browning or increased expression of brown adipocyte marker genes"}
    ]}
  ]
}
